{"source": "patent US20090214428A1", "about": "(HENRY M JACKSON FOUNDATION FOR THE ADVANCEMENT OF MILITARY …, published 2009)", "binders": {"B1": {"name": "Fab m102 (Fab, V domains shown)", "VH": "EVQLVQSGAEVKKPGSSVKVSCKSSGGTFSNYAINWVRQAPGQGLEWMGGIIPILGIANYAQKFQGRVTITTDESTSTAYMELSSLRSEDTAVYYCARGWGREQLAPHPSQYYYYYYGMDVWGQGTTVTVSS", "VL": "EIVLTQSPGTLSLSPGERATLSCRASQSITNGRLAWYQQKPGQAPRLLIYGVSSRASGIPERFSGSGSGTDFTLTISRLEPEDFAVYYCQQYGSSVLFGPGTKVDIKR"}}, "target": "T1, myc-tagged NiV G (full-length, from lysates of infected cells) (Nipah virus, UniProt Q9IH62 1-602)", "T1 sequence": "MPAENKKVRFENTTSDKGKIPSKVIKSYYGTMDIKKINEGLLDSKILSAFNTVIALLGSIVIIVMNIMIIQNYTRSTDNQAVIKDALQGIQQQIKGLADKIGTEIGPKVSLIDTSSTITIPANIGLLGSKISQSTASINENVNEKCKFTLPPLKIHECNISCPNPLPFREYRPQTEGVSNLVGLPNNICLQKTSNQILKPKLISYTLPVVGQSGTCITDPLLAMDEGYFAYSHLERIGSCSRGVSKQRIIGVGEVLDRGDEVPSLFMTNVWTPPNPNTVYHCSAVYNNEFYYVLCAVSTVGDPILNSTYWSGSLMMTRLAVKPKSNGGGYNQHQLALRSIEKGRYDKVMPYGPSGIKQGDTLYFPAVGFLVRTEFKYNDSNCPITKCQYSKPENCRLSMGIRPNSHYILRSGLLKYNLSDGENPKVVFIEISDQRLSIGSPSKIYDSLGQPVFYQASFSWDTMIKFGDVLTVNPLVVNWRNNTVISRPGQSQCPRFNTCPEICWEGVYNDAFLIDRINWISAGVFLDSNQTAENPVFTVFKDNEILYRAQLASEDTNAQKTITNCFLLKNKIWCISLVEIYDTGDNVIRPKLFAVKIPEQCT", "assay": "immunoprecipitation of 35S-labelled myc-tagged G from cell lysate", "data": [{"binder": "B1", "values": [{"measurement": "binding result", "result": "binds"}]}]}
